B1: FANCE (parent)
chain: AQVLMLGQILELPWKEETFLVLQS
B2: INTS3 (parent)
chain: KKREFRFHPIKETVVEEPVDITPY

Variants of: B1
Assay: protein stability index of a GFP-peptide fusion (GPS, HEK-293T) (PSI 1-6); higher = more stable
Conditions: c terminus: a fixed tail appended
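Also: lentivirally expressed fusions sorted by FACS into six bins by GFP to DsRed ratio, PSI derived from sequencing read proportions per bin multiplied by bin number.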

Protein stability index of substitutions, site by site:
L12: E 2.39; G 3.1; P 4.52; T 2.91; D 2.26; W 2.1; K 2.57; C 3.49; Q 2.95; S 2.69; M 3.18; A 3.6; F 2.48; Y 2.6; R 3.1; I 2.49; N 1.94; H 2.4
V3: T 2.01; K 1.32; G 1.85; L 3.37; A 3.44; E 1.82; I 2.75; M 2.09; H 2.45; S 1.95; Y 2.82; P 1.56; F 3.46; R 2.92; N 1.97; D 1.81; Q 1.72
I9: T 2.91; D 2.85; E 1.63; K 1.6; G 1.73; P 2.75; H 2.26; L 3.3; S 2.09; M 2.82; N 1.7; A 3.41; R 2.46; Q 1.68; C 2.36; F 3.22
F19: G 2.11; H 3.46; K 1.53; D 2.53; A 1.77; M 2.68; E 2.25; C 1.54
E17: D 3.79; F 1.89; R 1.48; K 3.12; Q 3.48; G 4.35; N 4.33; M 2.08; Y 5.43; H 3.21; V 4.49; A 2.43; L 2.23
T18: G 3.68; R 4.64; N 4.29; S 2.84; Q 2.45; A 1.7; P 1.79; L 2.16; F 3.58; Y 2.29; H 3.02; D 1.84; M 2.92
M5: S 1.68; N 2.12; K 1.8; T 1.72; P 1.79; E 1.79; A 2.24; D 1.95; W 2.56; V 3.14; G 1.05; Q 1.76; L 2.3; Y 2.58; R 1.78; C 1.57
L10: E 1.94; K 2.04; F 3.56; H 3.55; P 2.35; Y 4.15; M 2.01; G 2.19; R 3.13; D 1.78; S 3; N 1.88; A 1.81; T 2.28
W14: T 2.08; K 1.96; Y 2.51; L 2.21; F 2.72; P 1.83; H 3.52; D 1.58; E 2.01; C 2.55; N 3.44; R 4.06; S 3.07; I 2.95; G 2.07
E16: N 2.23; T 3.35; V 3.46; M 2.5; Q 3.56; R 1.97; G 2.03; H 3.11; L 3.01; D 1.67; A 3.98; F 4.03; K 2.78; Y 3.33
A1: E 2.43; D 1.77; V 3.34; N 2.31; Q 2.4; H 1.25; I 3.1; L 3.15; M 3.16; W 2.62; R 1.83; T 4.61; G 2.51; K 1.56; C 2.51
E11: G 2.17; K 2.65; A 4.02; F 3.3; P 3.01; R 2.01; C 5.4; H 1.11; I 1.47; Y 3.17; L 1.81; V 3.41; D 3.64; M 5.04; T 2.47
L6: W 2.46; K 3.18; C 3.67; I 3.28; H 3.74; T 2.23; P 1.53; R 1.13; E 1.44; Q 1.63; F 2.61; G 2.17; S 2.7; A 1.48; Y 3.4; D 2.3
Q2: F 1.72; N 3.14; A 2.05; K 2.02; E 2.48; H 2.69; I 3.13; S 2.87; P 1.55; T 3.45; Y 1.82; D 2; G 2.21
K15: M 2.91; P 4.32; S 2.58; Q 1.47; E 2.32; T 3.16; D 2.01; W 2.14; H 3.52; F 2.52; Y 5.17; V 5.16; L 2.82; A 2.06; N 1.94
G7: W 3.13; S 2.32; D 2.12; I 3.43; N 2.85; E 3.09; P 2.51; C 2.25; Q 2.19; R 4.09; V 2.8; F 2.22
P13: K 2.57; F 3.35; N 3.19; Y 2.88; W 3.76; D 2.95; H 2.19; I 2.77; Q 2.39; L 2.2; A 5.32; C 4.64
Q8: W 2.25; A 2.48; T 2.34; Y 3.2; H 2.57; R 2.63; S 2.42; F 2.51; I 4.26; L 3.68; E 1.35; V 3.43; M 2.39; G 4.12
L4: K 2.13; S 2; E 3.28; G 2.25; N 2.04; P 2.18; M 3.29; R 2.68; H 1.66; A 2.02; D 3.76; T 2.7; Q 2.4; W 2.28; Y 2.82; C 3.01

Variants of: B2
Assay: as above
Conditions: c terminus: a fixed tail appended

Protein stability index: each site, then its substitutions
I21: S 1.21; V 2.63; T 1.95; Y 1.56; W 2.1
P23: A 1.66; E 3.24; M 2.4; Q 1.88; D 2.04; T 1.46; Y 2.87; N 1.84; G 3.45; L 1.84; I 1.5; F 1.67; K 1.99; H 1.74; W 2.28; C 2.08; R 1.55; V 1.44; S 1.61
Y24: S 1.84; T 2.24; V 2.26; L 2.17; P 2.17; M 1.76; D 2.44; A 2.59; H 1.99; W 1.88; G 2.44; N 2.03; K 1.71; R 1.47; I 2.33; C 2.16; E 2.38; F 2.18; Q 2.04
T22: V 1.58; Q 1.93; D 2.12; A 1.45; W 1.3; N 1.72; C 1.82; G 2.03; H 2.23; S 2.33; P 1.86; E 1.97; R 1.99; K 1.88; I 1.96; L 2.33; M 1.89; Y 2.26; F 2.57
